Measured values from patent publication US20220064286A1 (Genentech, published 2022).
Substitutions are numbered along the chain they refer to. Names and notes keep the numbering of the source. Values belong to the binder of their own block, whether it stands above or below them.

Assays:
human TIGIT protein = biological target: T1, human TIGIT protein (human, UniProt Q495A1 22-141, limits assumed); test: SPR, captured mAb
T1 construct: Recombinant protein (Genentech) used in ELISA screening and as SPR analyte; also called TIGIT antigen
T1 sequence: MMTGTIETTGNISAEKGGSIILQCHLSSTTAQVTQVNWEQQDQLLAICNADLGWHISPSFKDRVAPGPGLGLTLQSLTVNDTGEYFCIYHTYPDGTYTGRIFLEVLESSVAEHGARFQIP
Procedure: (§1) Briefly, a series S CM5 biosensor chip was activated with N-ethyl-N′-(3-dimethylaminopropyl)-carbodiimide hydrochloride (EDC) and N-hydroxysuccinimide (NHS) reagents according to the supplier's (GE Healthcare Biosciences, Piscataway, N.J.) instructions, and a human antibody capture kit was applied to couple goat anti-human Fc IgGs in order to achieve approximately 10,000 response units (RU) on each flow cell, followed by blocking un-reacted groups with 1M ethanolamine.
(§2) (flow rate: 30 μl/min) with no regeneration between injections. The sensorgrams were recorded and evaluated by BIAcore™ T200 Evaluation Software (version 2.0) after subtraction of reference cell signal. Association rates (kₒₙ) and dissociation rates (koff) were calculated using a simple one-to-one Langmuir binding model. The equilibrium dissociation constant (KD) was calculated as the ratio koff/kₒₙ.
(§3) The first humanized versions, h6B2, L1H1, h10A5.L1H1, h7E7, L1H1, and h15C8.L1H1, which contain both rat CDRs and framework residues at Vernier positions, and the fully humanized versions, h6B2.L2H5, h10A5.L4H4, h7E7.L5H9, and h15C8.L5H9, which contain only rat CDRs were subject to BIAcore affinity measurement by comparison with original rat antibodies, rat6B2, rat10A5, rat7E7 and rat 15C8. For binding affinity determinations of TIGIT antibodies against human TIGIT, cynomolgus monkey TIGIT and human alanine-scanned TIGIT mutants by single-cycle kinetics, Surface Plasmon Resonance (SRP) measurement with a BIACORE™-T200 instrument was used, as described above.

[1] = biological target: cynomolgus monkey (cyno) TIGIT protein (cynomolgus monkey, UniProt A0A7N9I9V4 89-209); test: SPR, captured mAb
Procedure: as §1, §2, §3

Sequence of cynomolgus monkey (cyno) TIGIT protein (A0A7N9I9V4 entry or part of it): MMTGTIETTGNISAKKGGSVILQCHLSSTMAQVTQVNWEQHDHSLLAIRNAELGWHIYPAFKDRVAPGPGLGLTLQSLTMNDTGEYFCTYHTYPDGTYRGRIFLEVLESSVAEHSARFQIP

B2: h15C8.L3H1 (antibody, V domains shown)
VH: EVQLVQSGAEVKKPGASVKVSCKASGYTFTEHSIYWLRQAPGQRLEIIGRIDPKNGRTYFVDKFKNRATLTTDTSASTAYMELSSLRSEDTAVYFCARIDGFYFDFWGQGTLVTVSS
VL: DIQLTQSPSFLSASVGDRVTITCKGSQNVNKYLVWYQQKPGKAPKLLIYSTDNLQSGIPSRFSGSGSGTEFTLTISSLQPEDFATYFCYQYNNGFTFGQGTKVEIK
notes: VL: Y71F against h15C8.L1H1; FR/HVR pieces
Kd (human TIGIT protein): 0.84 nM
koff (human TIGIT protein): 0.000533 s⁻¹
kon (human TIGIT protein): 631000 M⁻¹ s⁻¹
Kd [1]: 1.75 nM
koff [1]: 0.000588 s⁻¹
kon [1]: 336000 M⁻¹ s⁻¹

B3: h15C8.L5H1 (antibody, V domains shown)
VH: B2 VH
VL: B2 VL with I58V, F87Y
notes: VL: I58V, Y71F, F87Y against h15C8.L1H1; FR/HVR pieces
Kd (human TIGIT protein): 0.83 nM
koff (human TIGIT protein): 0.000562 s⁻¹
kon (human TIGIT protein): 674000 M⁻¹ s⁻¹
Kd [1]: 2.68 nM
koff [1]: 0.000752 s⁻¹
kon [1]: 281000 M⁻¹ s⁻¹

B8: h15C8.L1H4 (antibody, V domains shown)
VH: B2 VH with I48M
VL: B2 VL with F71Y
notes: VH: I48M against h15C8.L1H1; FR/HVR pieces
Kd (human TIGIT protein): 0.59 nM
koff (human TIGIT protein): 0.000498 s⁻¹
kon (human TIGIT protein): 841000 M⁻¹ s⁻¹
Kd [1]: 1.05 nM
koff [1]: 0.000558 s⁻¹
kon [1]: 532000 M⁻¹ s⁻¹

B11: h15C8.L1H8 (antibody, V domains shown)
VH: B2 VH with F95Y
VL: B2 VL with F71Y
notes: VH: F91Y against h15C8.L1H1; FR/HVR pieces
Kd (human TIGIT protein): 0.61 nM
koff (human TIGIT protein): 0.000381 s⁻¹
kon (human TIGIT protein): 620000 M⁻¹ s⁻¹
Kd [1]: 0.41 nM
koff [1]: 0.000119 s⁻¹
kon [1]: 291000 M⁻¹ s⁻¹

B12: h15C8.L4H1 (antibody, V domains shown)
VH: B2 VH
VL: B2 VL with F71Y, F87Y
notes: VL: F87Y against h15C8.L1H1; FR/HVR pieces
Kd (human TIGIT protein): 0.64 nM
koff (human TIGIT protein): 0.000611 s⁻¹
kon (human TIGIT protein): 955000 M⁻¹ s⁻¹
Kd [1]: 1.15 nM
koff [1]: 0.000559 s⁻¹
kon [1]: 485000 M⁻¹ s⁻¹

Binders with a lower Kd (human TIGIT protein), results first:

Kd (human TIGIT protein): 0.38 nM
koff (human TIGIT protein): 0.00107 s⁻¹
kon (human TIGIT protein): 2.82e+06 M⁻¹ s⁻¹
Kd [1]: 0.42 nM
koff [1]: 0.000381 s⁻¹
kon [1]: 908000 M⁻¹ s⁻¹
B1: h7E7.L1H3 (antibody, V domains shown)
VH: B2 VH with H32Y, L37V, I48M, F60Y, T72A, A97T, D100Y
VL: B2 VL with S50N, F71Y
notes: VH: I48M against h7E7.L1H1; FR/HVR pieces

Kd (human TIGIT protein): 0.24 nM
koff (human TIGIT protein): 0.000504 s⁻¹
kon (human TIGIT protein): 2.06e+06 M⁻¹ s⁻¹
Kd [1]: 0.36 nM
koff [1]: 0.000179 s⁻¹
kon [1]: 493000 M⁻¹ s⁻¹
B4: h7E7.L2H1 (antibody, V domains shown)
VH: B2 VH with H32Y, L37V, F60Y, T72A, A97T, D100Y
VL: B2 VL with S50N, I58V, F71Y
notes: VL: I58V against h7E7.L1H1; FR/HVR pieces

Kd (human TIGIT protein): 0.24 nM
koff (human TIGIT protein): 0.000218 s⁻¹
kon (human TIGIT protein): 920000 M⁻¹ s⁻¹
Kd [1]: 0.95 nM
koff [1]: 0.00122 s⁻¹
kon [1]: 1.28e+06 M⁻¹ s⁻¹
B5: h7E7.L3H1 (antibody, V domains shown)
VH: B2 VH with H32Y, L37V, F60Y, T72A, A97T, D100Y
VL: B2 VL with S50N
notes: VL: Y71F against h7E7.L1H1; FR/HVR pieces

Kd (human TIGIT protein): 0.27 nM
koff (human TIGIT protein): 0.000796 s⁻¹
kon (human TIGIT protein): 2.95e+06 M⁻¹ s⁻¹
Kd [1]: 0.44 nM
koff [1]: 0.000274 s⁻¹
kon [1]: 629000 M⁻¹ s⁻¹
B6: h7E7.L4H1 (antibody, V domains shown)
VH: B2 VH with H32Y, L37V, F60Y, T72A, A97T, D100Y
VL: B2 VL with S50N, F71Y, F87Y
notes: VL: F87Y against h7E7.L1H1; FR/HVR pieces

Kd (human TIGIT protein): 0.55 nM
koff (human TIGIT protein): 0.000756 s⁻¹
kon (human TIGIT protein): 1.38e+06 M⁻¹ s⁻¹
Kd [1]: 0.84 nM
koff [1]: 0.000556 s⁻¹
kon [1]: 663000 M⁻¹ s⁻¹
B7: h15C8.L1H6 (antibody, V domains shown)
VH: B2 VH with L70I
VL: B2 VL with F71Y
notes: VH: L69I (printed L691) against h15C8.L1H1; FR/HVR pieces

Kd (human TIGIT protein): 0.36 nM
koff (human TIGIT protein): 0.00101 s⁻¹
kon (human TIGIT protein): 2.78e+06 M⁻¹ s⁻¹
Kd [1]: 0.39 nM
koff [1]: 0.000331 s⁻¹
kon [1]: 845000 M⁻¹ s⁻¹
B9: h7E7.L1H8 (antibody, V domains shown)
VH: B2 VH with H32Y, L37V, F60Y, T72A, D100Y
VL: B2 VL with S50N, F71Y
notes: VH: T93A against h7E7.L1H1; FR/HVR pieces

Kd (human TIGIT protein): 0.27 nM
koff (human TIGIT protein): 0.000749 s⁻¹
kon (human TIGIT protein): 2.79e+06 M⁻¹ s⁻¹
Kd [1]: 0.4 nM
koff [1]: 0.000243 s⁻¹
kon [1]: 601000 M⁻¹ s⁻¹
B10: h7E7.L1H4 (antibody, V domains shown)
VH: B2 VH with H32Y, L37V, F60Y, A68V, T72A, A97T, D100Y
VL: B2 VL with S50N, F71Y
notes: VH: A67V against h7E7.L1H1; FR/HVR pieces
